Laboratory results reported in article PMC9036128, “An anti-ANGPTL3/8 antibody decreases circulating triglycerides by binding to a LPL-inhibitory leucine zipper-like motif” (Journal of Lipid Research, 2022).

T1: human ANGPTL3 (human, UniProt Q9Y5C1 17-460)
T1 construct: angiopoietin-like protein 3 (ANGPTL3), human; 460-amino acid protein, CCD 17-210, linker, FLD 241-460; also called free ANGPTL3; ANGPTL3 alone; source: generated as previously described (22, 44)
T1 sequence (looked up): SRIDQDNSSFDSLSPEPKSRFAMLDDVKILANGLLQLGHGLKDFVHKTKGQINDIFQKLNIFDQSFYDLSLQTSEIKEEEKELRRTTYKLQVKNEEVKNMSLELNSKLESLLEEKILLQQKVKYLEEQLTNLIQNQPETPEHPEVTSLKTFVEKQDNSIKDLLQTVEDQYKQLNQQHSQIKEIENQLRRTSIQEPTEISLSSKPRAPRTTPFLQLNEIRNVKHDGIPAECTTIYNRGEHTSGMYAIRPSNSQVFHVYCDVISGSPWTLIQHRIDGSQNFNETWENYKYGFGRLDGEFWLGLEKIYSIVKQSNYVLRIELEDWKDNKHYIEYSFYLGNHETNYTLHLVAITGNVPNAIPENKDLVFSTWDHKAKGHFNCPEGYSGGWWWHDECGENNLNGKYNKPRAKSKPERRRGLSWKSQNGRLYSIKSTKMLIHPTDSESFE

T2: ANGPTL8 cotransfected with ANGPTL3 and the anti-ANGPTL3/8 antibody Fab in CHO cells (UniProt Q6UXH0 22-198)
T2 construct: angiopoietin-like protein 8 (ANGPTL8); Used only for negative stain TEM; source: CHO cells, cotransfected with ANGPTL3 and an anti-ANGPTL3/8 antibody Fab
T2 sequence (looked up): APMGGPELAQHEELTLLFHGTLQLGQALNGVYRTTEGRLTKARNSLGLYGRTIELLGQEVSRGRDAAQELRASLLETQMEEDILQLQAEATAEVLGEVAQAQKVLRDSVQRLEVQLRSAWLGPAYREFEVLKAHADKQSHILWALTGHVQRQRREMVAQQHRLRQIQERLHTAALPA


Columns and labels:
human ANGPTL3 = target: T1, human ANGPTL3; assay: HDX-MS; purified ANGPTL3/8 complex (12 uM) against ANGPTL3 alone (15 uM) and ANGPTL8 alone (15 uM); pH 7.4, 10 mM sodium phosphate, 150 mM NaCl, 15 C; 10 s, 2 min, 10 min, 60 min; triplicate; conditions: both partners purified
[1] = target: T2, ANGPTL8 cotransfected with ANGPTL3 and …; assay: negative stain transmission electron microscopy; ANGPTL3, ANGPTL8 and anti-ANGPTL3/8 antibody Fab cotransfected in CHO cells; sample diluted 100-fold into TBS, uranyl formate stain; 2D class averaging in three rounds
[2] = target: the molecule itself; assay: as above

binding result (human ANGPTL3) | stoichiometry N [1] | Binder | stoichiometry N [2]
binds | – | human ANGPTL8 as it stands in the ANGPTL3/8 complex (HSA fusion partner removed) (natural protein, UniProt Q6UXH0 22-198, looked up, angiopoietin-like protein 8 (ANGPTL8), human; 198-amino acid protein; same expression construct as HIS-HSA-ANGPTL8; also called ANGPTL8 complexed with ANGPTL3; source: part of the ANGPTL3/8 complex generated as previously described (22, 44); HSA fusion partner removed by proteolysis; not shown: His, N-terminal, cleaved; HSA, N-terminal, cleaved) APMGGPELAQHEELTLLFHGTLQLGQALNGVYRTTEGRLTKARNSLGLYGRTIELLGQEVSRGRDAAQELRASLLETQMEEDILQLQAEATAEVLGEVAQAQKVLRDSVQRLEVQLRSAWLGPAYREFEVLKAHADKQSHILWALTGHVQRQRREMVAQQHRLRQIQERLHTAALPA | –
– | 3 ANGPTL3 per ANGPTL8 | ANGPTL3 cotransfected with ANGPTL8 and the anti-ANGPTL3/8 antibody Fab in CHO cells (natural protein, UniProt Q9Y5C1 17-460, looked up, angiopoietin-like protein 3 (ANGPTL3); Used only for negative stain TEM; source: CHO cells, cotransfected with ANGPTL8 and an anti-ANGPTL3/8 antibody Fab) SRIDQDNSSFDSLSPEPKSRFAMLDDVKILANGLLQLGHGLKDFVHKTKGQINDIFQKLNIFDQSFYDLSLQTSEIKEEEKELRRTTYKLQVKNEEVKNMSLELNSKLESLLEEKILLQQKVKYLEEQLTNLIQNQPETPEHPEVTSLKTFVEKQDNSIKDLLQTVEDQYKQLNQQHSQIKEIENQLRRTSIQEPTEISLSSKPRAPRTTPFLQLNEIRNVKHDGIPAECTTIYNRGEHTSGMYAIRPSNSQVFHVYCDVISGSPWTLIQHRIDGSQNFNETWENYKYGFGRLDGEFWLGLEKIYSIVKQSNYVLRIELEDWKDNKHYIEYSFYLGNHETNYTLHLVAITGNVPNAIPENKDLVFSTWDHKAKGHFNCPEGYSGGWWWHDECGENNLNGKYNKPRAKSKPERRRGLSWKSQNGRLYSIKSTKMLIHPTDSESFE | 3
